Assay results: IntAct's records for PubMed 24843023

B1: AP-1 complex subunit mu-1 (Mus musculus), P35585 (parent)
chain: MSASAVYVLDLKGKVLICRNYRGDVDMSEVEHFMPILMEKEEEGMLSPILAHGGVRFMWIKHNNLYLVATSKKNACVSLVFSFLYKVVQVFSEYFKELEEESIRDNFVIIYELLDELMDFGYPQTTDSKILQEYITQEGHKLETGAPRPPATVTNAVSWRSEGIKYRKNEVFLDVIEAVNLLVSANGNVLRSEIVGSIKMRVFLSGMPELRLGLNDKVLFDNTGRGKSKSVELEDVKFHQCVRLSRFENDRTISFIPPDGEFELMSYRLNTHVKPLIWIESVIEKHSHSRIEYMVKAKSQFKRRSTANNVEIHIPVPNDADSPKFKTTVGSVKWVPENSEIVWSVKSFPGGKEYLMRAHFGLPSVEAEDKEGKPPISVKFEIPYFTTSGIQVRYLKIIEKSGYQALPWVRYITQNGDYQLRTQ
B2: Bone marrow stromal antigen 2 (Homo sapiens), Q10589 (parent)
chain: MASTSYDYCRVPMEDGDKRCKLLLGIGILVLLIIVILGVPLIIFTIKANSEACRDGLRAVMECRNVTHLLQQELTEAQKGFQDVEAQAATCNHTVMALMASLDAEKAQGQKKVEELEGEITTLNHKLQDASAEVERLRRENQVLSVRIADKKYYPSSQDSSSAAAPQLLIVLLGLSALLQ
partner: B1 chain
B3: Protein Vpu (Human immunodeficiency virus type 1 group M subtype B (isolate SF162)), P19554 (parent)
chain: MQPLQILAIVALVVAAIIAIVVWTIVYIEYRKILRQRKIDRLIDRITERAEDSGNESEGDQEELSALVERGHLAPWDVDDL

Variants of: B1
Conditions: with bst2_human BST2, Q10589

Row | Variant | effect of a mutation on the interaction
1 | MSASAVYVLDLKGKVLICRNYRGDVDMSEVEHFMPILMEKEEEGMLSPILAHGGVRFMWIKHNNLYLVATSKKNACVSLVFSFLYKVVQVFSEYFKELEEESIRDNFVIIYELLDELMDFGYPQTTDSKILQEYITQEGHKLETGAPRPPATVTNAVSWRSEGIKYRKNEVFLAVIEAVNLLVSANGNVLRSEIVGSIKMRVFLSGMPELRLGLNDKVLFDNTGRGKSKSVELEDVKFHQCVRLSRFENDRTISFIPPDGEFELMSYRLNTHVKPLIWIESVIEKHSHSRIEYMVKAKSQFKRRSTANNVEIHIPVPNDADSPKFKTTVGSVKWVPENSEIVWSVKSFPGGKEYLMRAHFGLPSVEAEDKEGKPPISVKFEIPYFTTSGIQVRYLKIIEKSGYQALPWVRYITQNGDYQLRTQ [D174A] | disrupting interaction

Variants of: B1
Conditions: with tgon3_rat Ttgn1, P19814
tgon3_rat Ttgn1, P19814, sequence (P19814 whole entry): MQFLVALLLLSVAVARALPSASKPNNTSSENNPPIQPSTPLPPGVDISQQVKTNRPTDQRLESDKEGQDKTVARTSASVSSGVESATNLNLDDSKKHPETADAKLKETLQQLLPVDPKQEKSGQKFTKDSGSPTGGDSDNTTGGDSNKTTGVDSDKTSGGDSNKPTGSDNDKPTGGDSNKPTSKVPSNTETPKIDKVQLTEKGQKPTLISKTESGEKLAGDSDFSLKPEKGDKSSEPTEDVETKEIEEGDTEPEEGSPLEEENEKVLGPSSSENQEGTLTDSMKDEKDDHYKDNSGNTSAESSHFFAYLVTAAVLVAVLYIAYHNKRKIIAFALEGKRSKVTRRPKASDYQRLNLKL

Row | Variant | effect of a mutation on the interaction
2 | MSASAVYVLDLKGKVLICRNYRGDVDMSEVEHFMPILMEKEEEGMLSPILAHGGVRFMWIKHNNLYLVATSKKNACVSLVFSFLYKVVQVFSEYFKELEEESIRDNFVIIYELLDELMDFGYPQTTDSKILQEYITQEGHKLETGAPRPPATVTNAVSWRSEGIKYRKNEVFLAVIEAVNLLVSANGNVLRSEIVGSIKMRVFLSGMPELRLGLNDKVLFDNTGRGKSKSVELEDVKFHQCVRLSRFENDRTISFIPPDGEFELMSYRLNTHVKPLIWIESVIEKHSHSRIEYMVKAKSQFKRRSTANNVEIHIPVPNDADSPKFKTTVGSVKWVPENSEIVWSVKSFPGGKEYLMRAHFGLPSVEAEDKEGKPPISVKFEIPYFTTSGIQVRYLKIIEKSGYQALPWVRYITQNGDYQLRTQ [D174A] | disrupting interaction

Variants of: B2
Conditions: with ap1m1_mouse Ap1m1, P35585

Row | Variant | effect of a mutation on the interaction
3 | MASTSYDYCRAPMEDGDKRCKLLLGIGILVLLIIVILGVPLIIFTIKANSEACRDGLRAVMECRNVTHLLQQELTEAQKGFQDVEAQAATCNHTVMALMASLDAEKAQGQKKVEELEGEITTLNHKLQDASAEVERLRRENQVLSVRIADKKYYPSSQDSSSAAAPQLLIVLLGLSALLQ [V11A] | disrupting interaction
4 | MASTSADYCRVPMEDGDKRCKLLLGIGILVLLIIVILGVPLIIFTIKANSEACRDGLRAVMECRNVTHLLQQELTEAQKGFQDVEAQAATCNHTVMALMASLDAEKAQGQKKVEELEGEITTLNHKLQDASAEVERLRRENQVLSVRIADKKYYPSSQDSSSAAAPQLLIVLLGLSALLQ [Y6A] | disrupting interaction
5 | MASTSYDACRVPMEDGDKRCKLLLGIGILVLLIIVILGVPLIIFTIKANSEACRDGLRAVMECRNVTHLLQQELTEAQKGFQDVEAQAATCNHTVMALMASLDAEKAQGQKKVEELEGEITTLNHKLQDASAEVERLRRENQVLSVRIADKKYYPSSQDSSSAAAPQLLIVLLGLSALLQ [Y8A] | disrupting interaction
6 | MASTSADACRVPMEDGDKRCKLLLGIGILVLLIIVILGVPLIIFTIKANSEACRDGLRAVMECRNVTHLLQQELTEAQKGFQDVEAQAATCNHTVMALMASLDAEKAQGQKKVEELEGEITTLNHKLQDASAEVERLRRENQVLSVRIADKKYYPSSQDSSSAAAPQLLIVLLGLSALLQ [Y6A;Y8A] | disrupting interaction

Variants of: B3
Conditions: with fbw1a_human BTRC

Row | Variant | effect of a mutation on the interaction
7 | S53N;S57N | decreasing interaction
